What all share (assay): cell_activity; CHO iGFFP reporter
In one series the target is T1, LOX 3-4m.765 (artificial (I-CreI derived)).
T1 chain: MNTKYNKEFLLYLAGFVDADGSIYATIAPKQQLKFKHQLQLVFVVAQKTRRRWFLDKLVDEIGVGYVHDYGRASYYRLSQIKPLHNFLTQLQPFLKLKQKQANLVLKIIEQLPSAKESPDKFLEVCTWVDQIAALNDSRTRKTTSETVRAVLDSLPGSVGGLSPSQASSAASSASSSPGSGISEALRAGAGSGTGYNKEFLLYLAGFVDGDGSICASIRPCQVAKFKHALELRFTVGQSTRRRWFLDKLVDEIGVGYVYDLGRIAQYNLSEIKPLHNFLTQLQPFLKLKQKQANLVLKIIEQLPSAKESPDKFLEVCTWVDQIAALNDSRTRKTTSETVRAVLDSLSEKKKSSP
From the text: (§1) A CHO cell reporter system (see WO/2012/167192, FIG. 3) was used to determine whether the engineered meganucleases generated in these studies could recognize and cleave the modified LOX 3-4 recognition sequences in Table 87. To perform the assay, a pair of CHO cell reporter lines were produced, which carried a non-functional Green Fluorescent Protein (GFP) gene expression cassette integrated into the genome of the cell. The GFP gene in each cell line was interrupted by a pair of recognition sequences such that intracellular cleavage of either recognition sequence by a meganuclease would stimulate a homologous recombination event resulting in a functional GFP gene. In both cell lines, one of the recognition sequences was derived from the LOX 3-4 recognition sequence (i.e., those sequences disclosed in Table 87), and the second recognition sequence was specifically recognized by a control meganuclease called “CHO 23/24.” CHO reporter cells comprising a recognition sequence derived from the LOX 3-4 recognition sequence and the CHO 23/24 recognition sequence are referred to herein as “test cells.”
(§2) Novel engineered meganucleases derived from the LOX 3-4x.109 meganuclease were prepared by making amino acid substitutions at one or more positions in the first subunit and one or more positions in the second subunit. These engineered meganucleases were then evaluated for cleavage of the LOX 3-4 recognition sequence modified to have an ACAA center sequence (SEQ ID NO: 9) in the CHO reporter assay according to Example 1.

A further series has as its target T2, LOX 3-4m.684 (artificial (I-CreI derived)).
T2 chain: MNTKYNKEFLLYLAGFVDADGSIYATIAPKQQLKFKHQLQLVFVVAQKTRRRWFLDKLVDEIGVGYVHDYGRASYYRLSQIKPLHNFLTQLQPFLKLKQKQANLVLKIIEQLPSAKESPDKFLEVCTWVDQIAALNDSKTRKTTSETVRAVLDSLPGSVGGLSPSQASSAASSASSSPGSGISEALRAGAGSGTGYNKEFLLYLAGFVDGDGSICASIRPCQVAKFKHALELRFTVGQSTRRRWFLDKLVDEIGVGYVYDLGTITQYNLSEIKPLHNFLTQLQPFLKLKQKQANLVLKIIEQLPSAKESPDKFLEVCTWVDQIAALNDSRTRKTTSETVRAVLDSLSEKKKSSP
Source text: as §1, §2

For another series, the target named is T3, LOX 3-4m.750 (artificial (I-CreI derived)).
T3 chain: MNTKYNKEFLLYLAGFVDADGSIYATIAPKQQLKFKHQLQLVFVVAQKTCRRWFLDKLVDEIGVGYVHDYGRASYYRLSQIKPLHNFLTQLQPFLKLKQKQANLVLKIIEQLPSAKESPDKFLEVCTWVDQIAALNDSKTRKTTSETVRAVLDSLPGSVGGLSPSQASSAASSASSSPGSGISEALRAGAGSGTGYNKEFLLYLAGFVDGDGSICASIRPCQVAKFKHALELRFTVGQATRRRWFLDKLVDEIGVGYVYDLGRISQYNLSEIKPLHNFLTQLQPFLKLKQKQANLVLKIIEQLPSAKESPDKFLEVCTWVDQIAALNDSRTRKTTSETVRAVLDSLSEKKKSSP
Source text: as §1, §2

The target in the next series is T4, LOX 3-4m.1237 (artificial (I-CreI derived)).
T4 chain: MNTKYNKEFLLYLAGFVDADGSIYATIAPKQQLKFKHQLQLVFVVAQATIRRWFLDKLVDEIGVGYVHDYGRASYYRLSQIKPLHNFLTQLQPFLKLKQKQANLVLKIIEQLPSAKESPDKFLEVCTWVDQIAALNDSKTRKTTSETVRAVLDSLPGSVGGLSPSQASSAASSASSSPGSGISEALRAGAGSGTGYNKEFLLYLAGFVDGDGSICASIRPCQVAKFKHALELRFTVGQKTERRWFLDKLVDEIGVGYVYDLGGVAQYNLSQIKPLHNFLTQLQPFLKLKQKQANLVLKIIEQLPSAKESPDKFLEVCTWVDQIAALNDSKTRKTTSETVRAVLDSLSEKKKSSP
Source text: as §1
(§3) Novel engineered meganucleases derived from the LOX 3-4x.109 meganuclease were prepared by making amino acid substitutions at one or more positions in the first subunit and one or more positions in the second subunit. These engineered meganucleases were then evaluated for cleavage of the LOX 3-4 recognition sequence modified to have an ATAA center sequence (SEQ ID NO: 157) in the CHO reporter assay according to Example 1.

The next series concerns the target T5, LOX 3-4m.1293 (artificial (I-CreI derived)).
T5 chain: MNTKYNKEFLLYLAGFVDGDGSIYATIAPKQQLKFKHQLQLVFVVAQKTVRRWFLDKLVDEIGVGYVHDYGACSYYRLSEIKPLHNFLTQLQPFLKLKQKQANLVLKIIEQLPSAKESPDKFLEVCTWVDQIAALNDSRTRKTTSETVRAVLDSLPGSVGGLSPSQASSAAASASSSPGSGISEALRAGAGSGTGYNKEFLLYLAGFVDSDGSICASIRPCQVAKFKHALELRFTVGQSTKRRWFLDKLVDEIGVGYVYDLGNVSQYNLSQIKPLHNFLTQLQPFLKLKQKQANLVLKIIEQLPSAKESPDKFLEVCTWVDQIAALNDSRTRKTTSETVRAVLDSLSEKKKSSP
Source text: as §1, §3

Another series addresses T6, LOX 3-4m.1269 (artificial (I-CreI derived)).
T6 chain: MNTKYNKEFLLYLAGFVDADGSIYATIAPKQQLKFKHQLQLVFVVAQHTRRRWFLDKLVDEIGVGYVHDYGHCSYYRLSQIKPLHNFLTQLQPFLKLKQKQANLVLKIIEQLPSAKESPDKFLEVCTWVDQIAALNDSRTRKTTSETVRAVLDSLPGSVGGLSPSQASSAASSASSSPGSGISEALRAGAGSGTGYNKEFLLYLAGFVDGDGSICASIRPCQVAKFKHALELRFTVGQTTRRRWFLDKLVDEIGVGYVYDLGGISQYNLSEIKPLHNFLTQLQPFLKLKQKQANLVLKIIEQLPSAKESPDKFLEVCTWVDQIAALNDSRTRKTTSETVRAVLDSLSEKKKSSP
Source text: as §1, §3

In another series the target is T7, LOX 3-4m.1236 (artificial (I-CreI derived)).
T7 chain: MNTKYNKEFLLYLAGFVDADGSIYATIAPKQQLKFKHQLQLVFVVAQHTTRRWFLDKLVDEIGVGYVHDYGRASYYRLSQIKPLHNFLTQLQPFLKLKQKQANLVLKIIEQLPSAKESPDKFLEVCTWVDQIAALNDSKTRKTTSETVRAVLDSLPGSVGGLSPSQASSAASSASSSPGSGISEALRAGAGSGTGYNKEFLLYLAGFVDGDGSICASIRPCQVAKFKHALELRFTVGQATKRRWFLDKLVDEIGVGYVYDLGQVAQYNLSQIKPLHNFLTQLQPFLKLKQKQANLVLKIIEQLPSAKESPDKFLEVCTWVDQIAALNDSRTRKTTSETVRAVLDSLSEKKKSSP
Source text: as §1, §3

The next series addresses T8, LOX 3-4m.1329 (artificial (I-CreI derived)).
T8 chain: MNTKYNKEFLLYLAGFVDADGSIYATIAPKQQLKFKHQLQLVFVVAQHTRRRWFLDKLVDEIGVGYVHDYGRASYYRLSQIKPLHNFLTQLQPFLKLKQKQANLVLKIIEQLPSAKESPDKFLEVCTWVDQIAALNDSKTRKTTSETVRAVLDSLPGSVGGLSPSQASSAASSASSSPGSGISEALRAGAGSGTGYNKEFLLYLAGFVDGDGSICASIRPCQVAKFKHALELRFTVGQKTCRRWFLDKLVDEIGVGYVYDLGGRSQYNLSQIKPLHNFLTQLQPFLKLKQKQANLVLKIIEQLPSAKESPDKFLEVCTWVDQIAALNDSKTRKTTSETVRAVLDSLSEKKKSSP
Source text: as §1
(§4) Novel engineered meganucleases derived from the LOX 3-4x.109 meganuclease were prepared by making amino acid substitutions at one or more positions in the first subunit and one or more positions in the second subunit. These engineered meganucleases were then evaluated for cleavage of the LOX 3-4 recognition sequence modified to have an ATAG center sequence (SEQ ID NO: 184) in the CHO reporter assay according to Example 1.

The target in the next series is T9, LOX 3-4m.1415 (artificial (I-CreI derived)).
T9 chain: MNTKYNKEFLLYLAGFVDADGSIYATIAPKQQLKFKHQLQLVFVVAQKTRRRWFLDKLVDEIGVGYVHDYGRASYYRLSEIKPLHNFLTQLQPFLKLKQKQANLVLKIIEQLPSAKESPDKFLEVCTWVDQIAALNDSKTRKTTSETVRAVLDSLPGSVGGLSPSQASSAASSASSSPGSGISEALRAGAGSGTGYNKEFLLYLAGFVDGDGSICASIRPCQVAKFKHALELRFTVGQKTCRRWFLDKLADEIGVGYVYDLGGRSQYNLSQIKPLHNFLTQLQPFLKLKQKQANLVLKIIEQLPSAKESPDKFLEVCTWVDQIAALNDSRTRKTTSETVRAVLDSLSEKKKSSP
Source text: as §1, §4

The next series deals with T10, LOX 3-4m.1353 (artificial (I-CreI derived)).
T10 chain: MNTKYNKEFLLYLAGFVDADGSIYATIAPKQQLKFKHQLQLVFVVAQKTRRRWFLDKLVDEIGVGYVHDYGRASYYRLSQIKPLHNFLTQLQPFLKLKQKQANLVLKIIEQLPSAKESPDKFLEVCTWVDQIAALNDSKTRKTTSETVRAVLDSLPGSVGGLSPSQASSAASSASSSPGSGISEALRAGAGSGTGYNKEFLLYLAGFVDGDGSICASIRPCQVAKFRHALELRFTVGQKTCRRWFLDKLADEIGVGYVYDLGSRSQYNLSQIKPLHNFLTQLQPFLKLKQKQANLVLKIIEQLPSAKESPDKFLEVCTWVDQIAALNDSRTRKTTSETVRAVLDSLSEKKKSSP
Source text: as §1, §4

The target in a further series is T11, LOX 3-4m.1345 (artificial (I-CreI derived)).
T11 chain: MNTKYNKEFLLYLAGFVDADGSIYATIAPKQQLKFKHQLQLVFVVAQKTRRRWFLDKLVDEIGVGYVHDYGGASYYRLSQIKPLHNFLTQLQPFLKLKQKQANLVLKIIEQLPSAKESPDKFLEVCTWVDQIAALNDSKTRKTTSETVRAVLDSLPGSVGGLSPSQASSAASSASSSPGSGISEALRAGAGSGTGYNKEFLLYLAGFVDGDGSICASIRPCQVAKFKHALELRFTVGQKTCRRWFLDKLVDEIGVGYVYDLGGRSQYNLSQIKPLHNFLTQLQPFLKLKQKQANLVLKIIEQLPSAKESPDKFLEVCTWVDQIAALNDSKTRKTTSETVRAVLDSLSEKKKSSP
Source text: as §1, §4

From patent US20220195407, “OPTIMIZATION OF ENGINEERED MEGANUCLEASES FOR RECOGNITION SEQUENCES” (Precision BioSciences, Inc., published 2022) come the findings set out here.

B1: LOX 3-4 ACAA (dsDNA)
DNA 1: GTATAGCATACAATATACGAAG
DNA 2: CTTCGTATATTGTATGCTATAC
In the case of B1, the activity in the series with LOX 3-4m.765 was determined as 9.32 % GFP; with LOX 3-4m.684, 9.14 % GFP; in the series with LOX 3-4m.750, 9.32 % GFP.

B2: LOX 3-4 ATAA (dsDNA)
DNA 1: GTATAGCATATAATATACGAAG
DNA 2: CTTCGTATATTATATGCTATAC
B2: the activity was determined as 8.13 % GFP with LOX 3-4m.1237, 8 % GFP with LOX 3-4m.1293, 8.64 % GFP with LOX 3-4m.1269 and 9.28 % GFP with LOX 3-4m.1236.

B3: LOX 3-4 ATAG (dsDNA)
DNA 1: GTATAGCATATAGTATACGAAG
DNA 2: CTTCGTATACTATATGCTATAC
With B3, the activity amounted to 15.5 % GFP in the series with LOX 3-4m.1329, 13.1 % GFP in the series with LOX 3-4m.1415, 15.6 % GFP with LOX 3-4m.1353 and 14 % GFP with LOX 3-4m.1345.
